Data: paper PMC7612645

What was measured:
[1] = target: HBV core protein (Cp) dimer (Hepatitis B virus) (UniProt P03146); assay: fluorescence anisotropy; conditions: 20 mM HEPES pH 7.5, 250 mM NaCl, 5 mM DTT, DMSO +/- compound, <0.15 M GuHCl, room temperature; Cp titrated in 10 steps to 1.2 uM; scale: normalized anisotropy change vs no compound
[2] = target: HBV core protein (Cp) dimer (Hepatitis B virus) (UniProt P03146); assay: NCP reassembly, SEC-MALLS with RNase A challenge; conditions: 20 mM HEPES pH 7.5, 250 mM NaCl, 5 mM DTT, DMSO +/- compound, <0.15 M GuHCl, room temperature; Cp titrated in 10 steps to 1.2 uM

Chain of HBV core protein (Cp) dimer (Hepatitis B virus) (P03146 whole entry): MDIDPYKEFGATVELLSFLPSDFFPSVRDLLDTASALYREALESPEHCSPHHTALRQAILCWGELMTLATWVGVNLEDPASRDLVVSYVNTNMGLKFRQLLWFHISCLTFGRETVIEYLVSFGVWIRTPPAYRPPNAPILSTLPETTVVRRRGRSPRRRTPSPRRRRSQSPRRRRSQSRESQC

## HBV gRNA transcript, dye-labelled
[1]
  binding signal: 0.477

## HBV gRNA transcript
[2]
  binding signal (% NCP yield vs control): 90
